# From patent US20220289791A1, “LACTATE DEHYDROGENASE INHIBITOR POLYPEPTIDES FOR USE IN THE TREATMENT OF CANCER” (UNIVERSITÉ CATHOLIQUE DE LOUVAIN, priority 2019, published 2022)
# *1 amine or outer side, *2 acyl side, *3 side chain or, on linkers, in order; H or OH if unused. Where a SMILES comes first, the peptide text is derived from it. Bridges are numbered along the chain shown (N, C = ends). Where no end group is shown, it is not given here. [ ]: non-standard residue; d: D form. α,α'‑bisbromoxylene = α,α'-bisbromoxylene, a linker that cyclises the cysteines (bisbromoxylene cysteine cyclisation); C6F4(1,4-diyl) = Fc1c(F)c([*:2])c(F)c(F)c1[*:1]; mXylylene = c1cc(C[*:1])cc(C[*:2])c1; oXylylene = c1ccc(C[*:2])c(C[*:1])c1; pXylylene = c1cc(C[*:2])ccc1C[*:1]; Ala(cPr) = N[C@@H](CC1CC1)C(=O)O; tBuAla = CC(C)(C)C[C@H](N)C(=O)O; Aib = CC(C)(N)C(=O)O
# Tests used:
# truncated LDHB (LDHBtr) = truncated LDHB (LDHBtr) (Homo sapiens, UniProt P07195); experiment: Microscale thermophoresis (MST), Example 2, macrocycles against truncated LDHB; assay type: binding; conditions: for Kd: MST traces at 10 s to 20 s on time
# truncated LDHB (LDHBtr), sequence (P07195 21-334): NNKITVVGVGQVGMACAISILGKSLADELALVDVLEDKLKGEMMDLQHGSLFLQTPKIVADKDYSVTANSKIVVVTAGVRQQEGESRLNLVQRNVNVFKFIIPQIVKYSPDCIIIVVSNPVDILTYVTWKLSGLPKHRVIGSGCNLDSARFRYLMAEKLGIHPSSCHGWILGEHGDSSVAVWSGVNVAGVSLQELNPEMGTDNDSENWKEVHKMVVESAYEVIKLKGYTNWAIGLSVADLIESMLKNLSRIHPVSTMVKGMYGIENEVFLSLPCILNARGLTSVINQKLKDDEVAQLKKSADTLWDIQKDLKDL
# Experimental: MST measurements were performed on a Nanotemper Monolith NT.115 instrument (NanoTemper Technologies®) using Red-dye-NHS fluorescent labeling. Each LDH sample, purified to homogeneity, was labeled with the Monolith Red-dye-NHS 2nd generation labeling dye (NanoTemper Technologies®), according to the manufacturer's instructions. Measurements were performed in 50 mM sodium phosphate, pH 7.6, and 100 mM NaCl containing 0.05% Tween-20 in premium-treated capillaries (NanoTemper Technologies®). The final concentrations of either labeled protein in the assay were 100 nM. The ligands (NADH and peptides) were titrated in 1:1 dilutions following manufacturer's recommendations. All binding reactions were incubated for 5 min at room temperature after loading into capillaries. Experiments were performed in triplicates using 40% LED power, medium MST power, Laser On time 20 s and Laser Off time 3 s. Peptides were evaluated for their thermophoretic pattern, and Kd's were extracted from raw data at a 10 to 20 s MST on time according to manufacturer's instructions. Regarding interaction of 7 with LDH5, Kd was extracted from the raw fluorescence. A denaturation test was performed accordingly to manufacturer recommendation and excluded any nonspecific spectral interaction between 7 and the red-dye. All Kd's of interacting macrocycles and peptides were obtained in triplicate and corrected by taking into account the molecular weight of the TFA counter ion.
# LDHBtr [1] = biological target: T1, LDHBtr (Homo sapiens, UniProt P07195); experiment: Microscale thermophoresis (MST), Example 1; assay type: binding; conditions: linear peptides; read-out: Kd using MST experiment
# T1 sequence (P07195 21-334): as above
# Experimental: MST measurements were performed on a Nanotemper Monolith NT.115 instrument (Nanotemper Technologies®, GmbH) using Red-dye-NHS fluorescent labeling. Each LDH (WT or truncated) sample, purified to homogeneity, was labeled with the Monolith RED-NHS 2nd generation labeling dye according to the supplied protocol (Nanotemper Technologies®, GmbH). Measurements were performed in 50 mM Na-Phosphate pH 7.6 and 100 mM NaCl containing 0.05% Tween-20 in premium treated capillaries (Nanotemper Technologies®, GmbH). The final concentrations of either labeled protein in the assay were 100 nM. The ligands (NADH and peptides) were titrated in 1:1 dilutions following manufacturer's recommendations. All binding reactions were incubated 5′ at room temperature after loading into capillaries. Experiments were performed in triplicates using 40% LED power and medium MST power, LaserOn time was 20 sec, Laser Off time 3 sec. Linear octapeptides were evaluated for their thermophoretic pattern.
# LDHBtr [2] = biological target: T1, LDHBtr; experiment: NMR WaterLOGSY binding screening
# Experimental: All experiments were acquired on a Bruker Ascend Avance III 600 MHz equipped with a broadband cryoprobe (Bruker® GmBH, Germany)
# NMR WaterLOGSY was performed on samples prepared in 10% D2O buffer containing 50 mM sodium phosphate buffer, pH 7.6 and 100 mM NaCl. The concentration of LDH subunits was 15-20 μM. Ligand binding was detected using a NMR WaterLOGSY ephogsygpno.2 advance-version sequence with a […]. Water signal suppression was achieved using excitation sculpting scheme and a 50 ms spinlock was used to suppress protein background signal. For each experiment, 512 scans were collected to yield a 16K points FID. NMR WaterLOGSY intensity was corrected by plotting the intensity difference of the ligand NMR WaterLOGSY spectra recorded in the presence and absence of protein.
# For NMR WaterLOGSY screening experiments a correction factor was applied to account for slight concentration variation between samples. To do so, 8 scans 1H NMR spectra with 50 ms spinlock were recorded before NMR WaterLOGSY experiments. The intensity ratio of the aliphatic region (0.700 ppm to 0.955 ppm) with and without protein was used as a correction factor to compare the NMR WaterLOGSY intensity of the polypeptides of interest with and without LDH subunits. An arbitrary threshold of 0.1, corresponding to a 10% decrease in the NMR WaterLOGSY signal intensity between the spectra with and without protein, was set to discriminate between binders and non-binders.
# [3] = linear peptides at 800 μM, LDHBtr 15 μM
Compound,Binding using WaterLOGSY (800 μM) (LDHBtr [2]; [3]),further results
"CC[C@H](C)[C@H](NC(=O)[C@H](CC(C)C)NC(=O)[C@H](CCCCN)NC(=O)[C@@H]1CSc2c(F)c(F)c(c(F)c2F)SC[C@H](N)C(=O)N[C@@H]([C@@H](C)O)C(=O)N[C@@H](CC(C)(C)C)C(=O)N[C@@H](CCCCN)C(=O)N1)C(N)=O [CT-44, CT(mlL)KCKLI] (H-CT[tBuAla]KCKLI-NH2; linker 1-5 via C6F4(1,4-diyl); N-terminus assumed)",–,MST binding to LDHBtr (truncated LDHB (LDHBtr)): did not affect the binding properties
"CC[C@H](C)[C@H](NC(=O)[C@H](CC1CC1)NC(=O)[C@H](CCCCN)NC(=O)[C@@H]1CSc2c(F)c(F)c(c(F)c2F)SC[C@H](N)C(=O)N[C@@H]([C@@H](C)O)C(=O)N[C@@H](CC(C)C)C(=O)N[C@@H](CCCCN)C(=O)N1)C(N)=O [CT-45, CTLKCK(cpA)I] (H-CTLKCK[Ala(cPr)]I-NH2; linker 1-5 via C6F4(1,4-diyl); N-terminus assumed)",–,"MST binding to LDHBtr (truncated LDHB (LDHBtr)): unaltered Kd value, or even a slightly improved Kd value"
"CC[C@H](C)[C@H](NC(=O)[C@H](C)NC(=O)[C@H](CCCCN)NC(=O)[C@H](CCC(=O)O)NC(=O)[C@H](CCCCN)NC(=O)[C@H](CC(C)C)NC(=O)[C@@H](NC(=O)[C@H](C)N)[C@@H](C)O)C(N)=O [LB8-A6, ATLKEKAI] (H-ATLKEKAI-NH2)",–,Kd (LDHBtr [1]): > 10000 µM
"CC[C@H](C)[C@H](NC(=O)[C@H](CC(C)C)NC(=O)[C@H](CCCCN)NC(=O)[C@H](CCC(=O)O)NC(=O)[C@H](CCCCN)NC(=O)CNC(=O)[C@@H](NC(=O)[C@H](C)N)[C@@H](C)O)C(N)=O [LB8-G3, ATGKEKLI] (H-ATGKEKLI-NH2)",–,Kd (LDHBtr [1]): > 10000 µM
"CC[C@H](C)[C@H](NC(=O)[C@H](CC(C)C)NC(=O)[C@H](CCCCN)NC(=O)[C@H](CCC(=O)O)NC(=O)[C@H](CCCCN)NC(=O)[C@H](CC(C)C)NC(=O)[C@@H](NC(=O)[C@H](C)N)[C@@H](C)O)C(=O)N[C@@H](C)C(=O)N1CCC[C@H]1C(=O)N[C@H](C(=O)N[C@@H](C)C(=O)N[C@@H](CCC(=O)O)C(N)=O)C(C)C [LB13, ATLKEKLIAPVAE] (H-ATLKEKLIAPVAE-NH2; N-terminus assumed)",+ (binders),NMR WaterLOGSY signal / saturation transfer (LDHBtr [2]): exact same NMR WaterLOGSY spectrum than LB19
"CC[C@H](C)[C@H](NC(=O)[C@H](CC(C)C)NC(=O)[C@H](CCCCN)NC(=O)[C@H](CCC(=O)O)NC(=O)[C@@H]1CSCc2cccc(c2)CSC[C@H](N)C(=O)N[C@@H](C)C(=O)N[C@@H]([C@@H](C)O)C(=O)N[C@@H](CC(C)C)C(=O)N1)C(N)=O [MP6, CATLCEKLI] (H-CATLCEKLI-NH2; linker 1-5 via mXylylene)",–,Kd (truncated LDHB (LDHBtr)): > 1000 µM
"CC[C@H](C)[C@H](NC(=O)[C@H](CC(C)C)NC(=O)[C@H](CCCCN)NC(=O)[C@@H]1CSCc2ccccc2CSC[C@H](N)C(=O)N[C@@H]([C@@H](C)O)C(=O)N[C@@H](CC(C)C)C(=O)N[C@@H](CCCCN)C(=O)N1)C(N)=O [MP8, CTLKCKLI] (H-CTLKCKLI-NH2; linker 1-5 via oXylylene; N-terminus assumed)",–,Kd (truncated LDHB (LDHBtr)): 25 µM
"CC[C@H](C)[C@H](NC(=O)[C@H](CC(C)C)NC(=O)[C@H](CCCCN)NC(=O)[C@@H]1CSCc2ccc(cc2)CSC[C@H](N)C(=O)N[C@@H]([C@@H](C)O)C(=O)N[C@@H](CC(C)C)C(=O)N[C@@H](CCCCN)C(=O)N1)C(N)=O [MP9, CTLKCKLI] (H-CTLKCKLI-NH2; linker 1-5 via pXylylene; N-terminus assumed)",–,Kd (truncated LDHB (LDHBtr)): 113 µM
"CC[C@H](C)[C@H](NC(=O)[C@H](CC(C)C)NC(=O)[C@H](CCCCN)NC(=O)[C@@H]1CC(=O)NCCCC[C@H](NC(C)=O)C(=O)N[C@@H]([C@@H](C)O)C(=O)N[C@@H](CC(C)C)C(=O)N[C@@H](CCCCN)C(=O)N1)C(N)=O [MP10, Ac-KTLKDKLI] (Ac-KTLKDKLI-NH2; lactam 1-5)",–,Kd (truncated LDHB (LDHBtr)): 142 µM
"CC[C@H](C)[C@H](NC(=O)[C@H](CC(C)C)NC(=O)[C@H](CCCCN)NC(=O)[C@@H]1CCC(=O)N[C@@H](C)C(=O)N[C@@H]([C@@H](C)O)C(=O)N[C@@H](CC(C)C)C(=O)N[C@@H](CCCCN)C(=O)N1)C(N)=O [MP11, ATLKEKLI] (ATLKEKLI-NH2; lactam N-5)",–,Kd (truncated LDHB (LDHBtr)): 465 µM
"AALKEKLI [LB8-A1, LB8 structural analogue]",− (non-binders),–
"ACLKECLI [VS-142-BisAlk, cyclic peptide, cysteines alkylated using α,α′ bisbromoxylene]",–,Binding using WaterLOGSY (800 μM) (LDHBtr [2]; cyclic peptides at 800 μM): + (binders)
"ACTLKCKLI (linker 2-6 via α,α'‑bisbromoxylene (inferred)) [LT021, cyclic peptide, cysteines alkylated using α,α′ bisbromoxylene]",–,Binding using WaterLOGSY (800 μM) (LDHBtr [2]; cyclic peptides at 800 μM): + (binders)
ATAKEKLI (LB8-A2) [LB8 structural analogue],+ (binders),–
"ATL(Aib)E(Aib)LI (ATL[Aib]E[Aib]LI; not fully specified (C-terminus)) [LB8-Aib3, LB8 structural analogue]",+ (binders),–
"ATL(Aib)EKLI (ATL[Aib]EKLI; not fully specified (C-terminus)) [LB8-Aib1, LB8 structural analogue]",+ (binders),–
ATLAEALI (LB8-A3-A5) [LB8 structural analogue],+ (binders),–
ATLAEKLI (LB8-A3) [LB8 structural analogue],+ (binders),–
ATLKAKLI (LB8-A4) [LB8 structural analogue],+ (binders),–
"ATLKDQLI [LA8, linear polypeptide]",+ (binders),–
ATLKDQLIYNLLKEEQTPQ (LA19) [linear polypeptide],+ (binders),–
"ATLKE(Aib)LI (ATLKE[Aib]LI; not fully specified (C-terminus)) [LB8-Aib2, LB8 structural analogue]",+ (binders),–
ATLKEALI (LB8-A5) [LB8 structural analogue],+ (binders),–
ATLKEKL (LB8-AL7) [LB8 structural analogue],− (non-binders),–
ATLKEKLA (LB8-A7) [LB8 structural analogue],+ (binders),–
ATLKEKLG (LB8-G8) [LB8 structural analogue],+ (binders),–
"Ac-ATLKEKLI [Ac-LB8, LB8 structural analogue]",+ (binders),–
"Ac-TLKEKLI [LB8-AcTI7, LB8 structural analogue]",− (non-binders),–
GTLKEKLI (LB8-G1) [LB8 structural analogue],+ (binders),–
"TLKEKLI (LB8-TI7) [LB8-T17, LB8 structural analogue]",− (non-binders),–
